In patent US5643726, “Methods for modulating transcription from the amyloid β-protein precursor (APP) promoter” (The General Hospital Corporation, dated 1996):
Values belong to the binder of their own block, whether it stands above or below them.

Tests used:
[1] = target: upstream stimulatory factor (USF), 43 kDa form (Homo sapiens (Human), UniProt P22415); test: cell-based or functional assay
[2] = target: T1, USF (43 kDa, recombinant USF) (UniProt P22415 P22415:1-310); test: EMSA; visible complex with 350 pg rUSF; competed by cold DK-1; conditions: tags: expressed in and purified from bacteria; chain copies: 2; label: 32P
T1 sequence (P22415 whole entry, the tested form may be a part, one chain of several): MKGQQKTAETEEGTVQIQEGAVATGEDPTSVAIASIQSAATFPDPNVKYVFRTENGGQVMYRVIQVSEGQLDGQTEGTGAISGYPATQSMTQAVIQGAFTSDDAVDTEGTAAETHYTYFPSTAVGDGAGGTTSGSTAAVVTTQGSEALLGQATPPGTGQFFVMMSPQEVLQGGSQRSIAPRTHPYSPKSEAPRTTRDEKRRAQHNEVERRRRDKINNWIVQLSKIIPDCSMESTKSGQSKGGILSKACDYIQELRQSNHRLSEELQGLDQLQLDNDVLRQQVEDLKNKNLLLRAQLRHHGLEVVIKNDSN
Experimental: (§1) EMSA was carried out as in Miner et al. (Miner, L. L. et al., *J. Neurosci. Res.* 33:10–18 (1992)). 1 ng of DNA fragment was incubated with 1 µg nuclear extract for 20 rain at 20° C., unless otherwise indicated. After incubation, the binding mixture was resolved on 6% polyacrylamide gels containing 4% glycerol in 25 mM Tris-borate (pH 8.3), 0.5 mM EDTA. Gels were dried and exposed to Kodak X-OMAT AR film with intensifying screen.
(§2) The amount of complex formed decreased with increasing amounts of cold fragment.

[3] = target: T1, USF (43 kDa, recombinant USF); test: competition; cold competitor up to 50-fold failed to diminish complex on DK-1; conditions: tags: expressed in and purified from bacteria; chain copies: 2
Experimental: as §1, §2

B2: DK-1 fragment (APP promoter -58 to -30, AP-1/AP-4) (dsDNA)
DNA 1: GGGCCGGATCAGCTGACTCGCCTGGCTCT
DNA 2: AGAGCCAGGCGAGTCAGCTGATCCGGCCC
binding result [2]: binds

B3: AP-1/AP-4 Random (dsDNA)
DNA 1: GGGCCGGAATCGTGCTGTCGCCTGGCTCT
DNA 2: AGAGCCAGGCGACAGCACGATTCCGGCCC
binding result [3]: no binding

The remaining lines, values ahead:

relative luciferase units (USF activation of transcription from the APP promoter) [1]: ~2 fold
B1: mouse amyloid precursor-like protein APLP1 (other)
chain: MGPTSPAARGQGRRWRPPLPLLLPLSLLLLRAQLAVGNLAVGSPSAAEAPGSAQVAGLCGRLTLHRDLRTGRWEPDPQRSRRCLLDPQRVLEYCRQMYPELHIARVEQAAQAIPMERWCGGTRSGRCAHPHHEVVPFHCLPGEFVSEALLVPEGCRFLHQERMDQCESSTRRHQEAQEACSSQGLILHGSGMLLPCGSDRFRGVEYVCCPPPATPNPSGMAAGDPSTRSWPLGGRAEGGEDEEEVESFPQPVDDYFVEPPQAEEEEEEEEERAPPPSSHTPVMVSRVTPTPRPTDGVDVYFGMPGEIGEHEGFLRAKMDLEERRMRQINEVMREWAMADSQSKNLPKADRQALNEHFQSILQTLEEQVSGERQRLVETHATRVIALINDQRRAALEGFLAALQGDPPQAERVLMALRRYLRAEQKEQRHTLRHYQHVAAVDPEKAQQMRFQVQTHLQVIEERMNQSLGLLDQNPHLAQELRPQIQELLLAEHLGPSELDASVPGSSSEDKGSLQPPESKDDPPVTLPKGSTDQESSSSGREKLTPLEQYEQKVNASAPRGFPFHSSDIQRDELAPSGTGVSREALSGLLIMGAGGGSLIVLSLLLLRKKKPYGTISHGVVEVDPMLTLEEQQLRELQRHGYENPTYRFLEERP

relative luciferase units (USF activation of transcription from the APP promoter) [1]: ~2 fold
B4: human amyloid precursor-like protein APLP2 (other)
chain: GYIEALAAAAGTGFAVAEPQIAMFCGKLNMHVNIQTGKWEPDPTGTKSCFRTKEEVLQYCQEMYPELQITNVMEANQRVSIDNWCRRDKKQCKSRFVTPFKCLVGEFVSDVLLVPEKCRFFHKERMEVCENHQHWHTVVKEACLTQGMTLYSYGMLLPCGVDQFHGTEYVCCPQTKDYWSVSKEEEEEEDEEEEEEEDEEEDYDVYKSEFPTEADLEDFTEAAVDEDDEDEEEGEEVVEDRDYYYDTFKGDDYNEENPTEPGSDGTMSDKEITHDVKVPPTPLPTNDVDVYFETSADDNEHARFQKAEKEQLIERHRNRMDRVKKEWEEAELQAKNLPKAERQTLIQHFQAMVKALEKAEAASEKQQLVETHLARVEAMLNDRRMALENYLAALQRSDPPRPHRILQPLRRYVRAENKDRLHTIRHYQHVLAVDPEKAAQMKSQVMTHLHVIEERRNQSLSLLYKDPYVARIQENDELLQAERADMDQFTASISETPVDVRVSSEESEEIPPFHPFHPFPALPENEDTQPELYHPMKKGSGVGEQDGGLIGAEEKVINSKNKVDENMVIDETLDKEMIFNAERVGGLEERESVGPLREDFSLSSSASIGLLVIAVAIATVIVISLVMLRKRQVCTISHGIVEVDPMLTPEERHLNKMQNHGYENPTYKTLEQMQI
